The source of these data is article PMC4761300 (Molecular cell, 2016).

The stoichiometry N is a count of units in the complex or per binding partner.

This data set concerns the molecule itself. Put plainly: SDS-PAGE of bicelle-reconstituted peptide.

Take RNRLWLLTILVLLIPLVFIYRKYRKRKS [mouse Fas-TM (transmembrane domain peptide of mouse Fas)]: the “stoichiometry N” value amounted to 3.
With RSNLGWLSLLLLPIPLIVWVKRKEVQKT [human Fas-TM (transmembrane domain peptide of human Fas, C178S)], the “stoichiometry N” value came out at 3.
